Reference: the DeepSol protein solubility set

Test: soluble on expression in E. coli; label from the status in PepcDB or PDB records

Row | Sequence | soluble on expression in E. coli
1 | MSDVTGDLAAVSEAKGGSDAARISEVKAWLTSQFEAVGKEVPNFEYTHRSITHLYNLATASQAKSQAATIVANDFRLKASEYRAQAARIREILESAGMSQESLPSNVVSSAQVLANVANLLNIRDTELSRILAQLEDDVVPCESQMENWKTNLEVMAVKEEQYIQQYKKYEMLLNRVGYTPKISHRELVEMAEHRKELDKMTKPVLDTLRSYQDLPPDKALAALAIEDKKRQFTAAEKYLEEVLQSALETNDE | soluble
2 | MSNICKTVSLRTRKIKDGHMLSYYLDYYPGYRDESTMKVIRHESLGIYIYAKPKNQMEQKYNLNLMARAEAIRCRRFEAIVNERYDFFDKEKMKGDFLAYFKKLADKKNSKWQHVYMHFRTFTQGKCTFGEINVDLCNRFREYLLTAPQGLHKNRKLHINSAANYWSTFRASIHTAYRDRKIKENPNGFLERIETIPTDKEHLSQDEVIRLASTPCSAPALKRAFLFSCLTALRKSDIKKLTWEEIQPYGSDGVMYVTTRMQKTKDIVHNPISEEALELIGYSPDKRGKVFPDFK | not soluble
3 | MEERLSTTSSYPSHPGRSVEEDHNTLLASSSISSIIRGTRGHLNNFIESVGNWLVPSSSGRDDDAVSLDSCQSVYSPVRHHINSGTGGGILMEPSSIHVPENYYSVTIGEAQMVVLKRYQNLRLIGSGAQGIVCSAFDTVRNEQVAIKKLSRPFQNVTHAKRAYRELKLMSLVNHKNIIGILNCFTPQKKLDEFNDLYIVMELMDANLCQVIQMDLDHERLSYLLYQMLCGIRHLHSAGIIHRDLKPSNIVVRSDCTLKILDFGLARTAIEAFMMTPYVVTRYYRAPEVILGMGYKENVDVWSIGCIFGELIRGRVLFPGGDHIDQWTRIIEQLGTPDRSFLERLQPTVRNYVENRPRYQATPFEVLFSDNMFPMTADSSRLTGAQARDLLSRMLVIDPERRISVDDALRHPYVNVWFDEIEVYAPPPLPYDHNMDVEQNVDSWREHIFRELTDYARTHDIYS | not soluble
4 | MGRSRRTLPEELLLLALDPTTGTTAQPQSLDLGLAGAQLVELALAGRIAPDGDRIAVVAPRPTGDPTLDCALELLRRRGAPVRAVNWIGGPRLGLRQTYLSHLERCGMVHAVEGQMCGVLPTTRYQATDTAISREIKARLDSAIRTGVPPDPRTAALAALAHAVGLGKHLYPGNEGRSSRSRLRDLIRHDPMGGLVAHAVMDVQNGAAAQPRRSPAPAGRQAPGPGARPAPEPARGVPAQPRHGSMARAAVHLEHHHHHH | soluble
5 | VTDMNPDIEKDQTSDEVTVETTSVFRADFLSELDAPAQAGTESAVSGVEGLPPGSALLVVKRGPNAGSRFLLDQAITSAGRHPDSDIFLDDVTVSRRHAEFRLENNEFNVVDVGSLNGTYVNREPVDSAVLANGDEVQIGKFRLVFLTGPKQGEDDGSTGGP | soluble
6 | MNKQPGEQPVSCATSTGKSEKERQKDEPPRSRAEAGMMRGGGRLPQPRDTPMEVPNMIAAMPIQMTGFVDLAPHTILDVLAQTTSLMIVQCLEPLEIFTGIETPNRYVVHDMYCRPLLYCMERSSFFARQHQGSQRNFAMQCMDIFGAPVMNCFRSRPCCSCDDFLATEFLGQRIGMMKRECCDDNFHLVGTGSNEPLLVRSPGCACCGGTQVFPVMTYNGAKIGEIVRLYPGFMQEWYTDADTYIVHFPPDLPPILKILLISSTFLIDYTFFENRGGNQRGGYGHGGYGYY | not soluble
7 | MGSDKIHHHHHHMELVDKDLRSIQETRNLIRKAKEAQQVLATFSQKQIDAIVQAVSEATFNQREKLAKMANEETGFGIYEDKIIKNAFASKVVYDEMKDKATVGVIHDDAAKKVTEIAVPVGVIAGLIPSTNPTSTVIYKALISLKAANSIVFSPHPNALKSIIETVEIIQKAAIAAGAPEGCVSVIKTPTMQATSELMKNKETNLILATGGNAMVKAAYSSGTPAIGVGPGNGPAYIERSANVPHAVKQIMDSKTFDNGTICASEQSIIVETVNREAVKEELIKQGAYFLSPAEADKLAKFILRPNGTMNPQIVGRSVQHIASLVGLSIPKDRRLIVAEETHVGLKYPFSREKLAPIIAFYTVENWEAACALSIEILKGEGAGHTMGIHTENKEVIREFGLRKPVSRLLVNTSGTLGGIGASTNLVPALTLGCGAVGGSSTSDNIGVENLFNLRRVAYGVRDLEEIRQEFGQTSTTSVATSCETTNQEELVNAVVAQVLARLN | not soluble
8 | LPIQARPRRNRKNRAVRQLVQENLVKPSSLIYPLFVHDEETSVPIPSMPGQSRLSMEDLLKEVGEARSYGIKAFMLFPKVDDELKSVMAEESYNPDGLLPRAIMALKEAFPDVLLLADVALDPYSSMGHDGVVDEQSGKIVNDLTVHQLCKQAITLARAGADMVCPSDMMDGRVSAIRESLDMEGCTDTSILAYSCKYASSFYGPFRDALDSHMVGGTDKKTYQMDPSNSREAEREAEADASEGADMLMVKPGLPYLDVLAKIREKSKLPMVAYHVSGEYAMLKAAAEKGYISEKDTVLEVLKSFRRAGADAVATYYAKEAAKWMVEDMKGTQKFTEPCY | soluble
9 | MSSTAAKKDVKSSAVPVTAVVEKKEFEEEEFEEFPVQEWAERAEGEEDDVNVWEDNWDDETHESEFSKQLKEELRKSGHQVA | not soluble
10 | MADILLLDNVDSFTYNLVDQLRASGHQVVIYRNQIGAEVIIERLQHMEQPVLMLSPGPGTPSEAGCMPELLQRLRGQLPIIGICLGHQAIVEAYGGQVGQAGEILHGKASAIAHDGEGMFAGMANPLPVARYHSLVGSNIPADLTVNARFGEMVMAVRDDRRRVCGFQFHPESILTTHGARLLEQTLAWALAK | soluble
11 | MTPDLKTSPPPATLFSEDAEAIAKYLDESAKNGRDSGKNKSTQIRRFYDELVGWQERIGTDEQKFRDYAAFIHMLNAKAAYAQGRNLVTREFVQWLRDCIKQIDGPRTLNHFRLHFEAMIGFLKAIRG | not soluble
12 | MRVEKAWFLADGAEAPEGLPEGGFREVALPHQWSLEGVEAEVGWYRLALPEAGPRRFLLSFGDYYQEAWLDGTYLGRHEGYFFPWVLELPKGKELFLRVSAPKEPLGVWPRFKRQIKGVFGQHDCRPGGTTARGQERGTGGLWGGVEVWAREEVALLGLAHRLFPRAGGWRLWVRLLVDAQRPFRERARLFLVPANFPGEALEREAVLEGEAGRAWREVVWDLPEMPLWEVWERGFPHLFRLEADLLGARLGVPLGFRTVEVDGEGWLLLNGKRLFLRGTNAIPTQWLAAYSEAMAQKDVALLKEANLNAVRVHAHVTHPAFYAACDREGVLVWQDFPLQWGYAPDEAFAQEALRQARAMVEVLGAHPSVYLWCAQNEPTHNRHALGPLLAAALRAADPTRPVKEASDFREHPYPGWYRGHYRDFLALPGAPLPSEFGAQALPRAELLRRVLGEAAWPPRWEVWAYHNFQPHETFRVARVEMGESLEEFVERSQDYQARLIEFAVHAYRRAKGKVVGYFQFMFVEPWEGITWAVLDVERVPKKGFFALKEASSPVLLSLVPYRERVEVGGPPCRRPGS | soluble
13 | MTFTGLPPEDVPALMTGAVIPHPSVAGRADAYLPSPCIQNHAANLAFLPDGTLSCVWFGGTMEGMRDISIYMSRLPPGSGRWSEPEKMSDDPEKSEQNPLIFNAPDGKTWLLYTSQTSGNQDGSIVKCRISDDGGKTFGPVQILCDSPGTFVRQQIVVNDRGDWLLPIFRCVGLEGQRWSGDADTAAVLISRDGGASWQMRDIPDSIGAVHMNILPLGGCEMIAFYRNRFAETILSSRSADGGETWSPPEPTELPNNNSSIQATVLDNGGIAMVYNHSNATMSDARRQSLYDEIEGDECGENAAVVADAGRKAVWGVPRAPLSLAISRDGGRTFPHRIDLDTGDGFCLSNNSKDSLNREFSYPSVIEGSDGTLHVAYTYYRRALEHHHHHH | not soluble
14 | MNNSEGLKSFQQSLADLPQWVSERLLQQINQLTNYEPVIGIMGKTGVGKSSLCNALFAGDISPVSDVAACTREPLRFRLQVGDRYITLMDLPGVGESGARDTEYAALYREQLPRLDLVLWLIKADDRALTVDEHFYHQVIGEVYRHKVLFVISQSDKAEPTSGGGQLSTAQKQNISRKICLLHELFQPVHPVCAVSVRLQWGLKVMAERMIKCLPREATSPVVSQLHPSFRTTVVREQARSDFGETVGAVLDSISAFPLIPAPVRAVIQAVRTTVVSVARAVWDFFF | soluble
15 | MGHHHHHHSHGATLIRDRLKTEPFEENSFLEQFMIEKLPEACSIGDGKPFVMNLQDLYMAVTTQEVQVGQKHQGAGDPHTSNSASLQGIDSQCVNQPEQLVSSAPTLSAPEKESTALCRDLSCQRSRGRSQGVSSVNLLWPQLLRMDLENSFQASP | not soluble
16 | GMTLTRDSLLTLEAYAKVRRQEHARVIAHKKRRAVSIGNHLRLLFEDETTIRYQIHEMLHIEKIFDEDGIQAELDAYLPLVPDGSNLKATLQIEYENETQRRAALARLVGIEDRVFLRVDDEAPVYAIADEDLERDTAEKTSAVHFLRFELGDAMKAKLKAGAPLSIGCDHPHYPIQAARIDPDVAASLAGDLD | soluble
17 | MGSDKIHHHHHHMTWVGVVDAGRHVEATMKLELGFDPRDLLRKLGPGNSIAKFAKNQTIFAQGDEADSVYLLLQGRIKVVVLSAQGKEAATGMVAPGQFFGDGCLVGEATRTTTTIAMQDCLVAAIPSTRLIETLRAQPDFAELFVRHLLLRNRRIEEDLLDQLLNCSEKRLARLLLRLADFEEGGEPQPIAPHISQETLAEMIGTTRSRVSYFMNKFRKLGLISYDRTIEVHPGRLSAVLHDRAEARG | not soluble
18 | ADIVNLQGVTGGNTYSVPAVTMDLLSGKDVAVEEFPRKLLTFKEKLGEGQFGEVHLCEVEGMEKFKDKDFALDVSANQPVLVAVKMLRADANKNARNDFLKEIKIMSRLKDPNIIHLLAVCITDDPLCMITEYMENGDLNQFLSRHEPPNSSSSDVRTVSYTNLKFMATQIASGMKYLSSLNFVHRDLATRNCLVGKNYTIKIADFGMSRNLYSGDYYRIQGRAVLPIRWMSWESILLGKFTTASDVWAFGVTLWETFTFCQEQPYSQLSDEQVIENTGEFFRDQGRQTYLPQPAICPDSVYKLMLSCWRRDTKNRPSFQEIHLLLLQQGDE | not soluble
19 | MPENYTPAAAATGTWTEEEIRHQPRAWIRSLTNIDALRSALNNFLEPLLRKENLRIILTGAGTSAFIGDIIAPWLASHTGKNFSAVPTTDLVTNPMDYLNPAHPLLLISFGRSGNSPESVAAVELANQFVPECYHLPITCNEAGALYQNAINSDNAFALLMPAETHDRGFAMTSSITTMMASCLAVFAPETINSQTFRDVADRCQAILTSLGDFSEGVFGYAPWKRIVYLGSGGLQGAARESALKVLELTAGKLAAFYDSPTGFRHGPKSLVDDETLVVVFVSSHPYTRQYDLDLLAELRRDNQAMRVIAIAAESSDIVAAGPHIILPPSRHFIDVEQAFCFLMYAQTFALMQSLHMGNTPDTPSASGTVNRVVQGVIIHPWQA | soluble
20 | MAHHHHHHMANRTDASAIKNFGSNPQYLISNIIRSKIYDSPYWKEKCFALTSESIIDQAINLKYVGGTYGGNRKPTRFLCLILKLLQIQPDKDIIYEYIKNEDFVYLRALGIFYLRLIGKSLEVYNHLEPILFDYRKIRMRLQNGTFEKIYMDVFVDNCLILNNFLDVDFPTLTKRQVLEENNLLQRKNLEYYKALLNISSDNELFKNNEDTTHNKNKEINKNKNEYKQRDMLERHKKINKYSSEDDHNYYHKKEGNYDKNKKHNKIYNHKYNNKYDDEERRHHSDYSSDMDRKSRKKEKKRTHSKYDHKKKKEKRNYSSDSKHSFTSSEYSVQNKKEEHDKKKKKLFFLKKQKKKNYHSSSQSNHSYDENKKDELSIDKWNEIRKELGMKPLK | soluble
